Measured values published in publication doi:10.1101/2024.07.05.602318 (bioRxiv, 2024).

Target: CLPX-3xFLAG (human, UniProt O76031 65-633)
Assay: co-IP

Sequence of CLPX-3xFLAG (O76031 65-633): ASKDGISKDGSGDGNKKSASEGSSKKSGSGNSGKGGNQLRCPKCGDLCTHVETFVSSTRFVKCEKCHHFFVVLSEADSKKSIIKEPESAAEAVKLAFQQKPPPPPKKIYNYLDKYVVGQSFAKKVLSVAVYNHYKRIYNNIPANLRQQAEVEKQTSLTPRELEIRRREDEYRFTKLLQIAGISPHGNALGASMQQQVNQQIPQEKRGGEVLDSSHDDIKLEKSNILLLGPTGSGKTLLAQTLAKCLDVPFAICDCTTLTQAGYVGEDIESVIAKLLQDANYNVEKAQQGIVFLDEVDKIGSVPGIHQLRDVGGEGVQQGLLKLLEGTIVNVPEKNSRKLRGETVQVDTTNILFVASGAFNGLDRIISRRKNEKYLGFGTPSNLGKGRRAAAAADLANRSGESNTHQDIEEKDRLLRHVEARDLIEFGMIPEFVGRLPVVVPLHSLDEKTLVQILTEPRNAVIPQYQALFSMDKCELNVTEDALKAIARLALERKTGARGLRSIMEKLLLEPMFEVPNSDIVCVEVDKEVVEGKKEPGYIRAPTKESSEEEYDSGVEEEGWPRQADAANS

| binding result | Binder |
| --- | --- |
| binds | POLDIP2 H225A, residues 52-368 (natural protein, human, UniProt Q9Y2S7 52-368, looked up) SSRNRPEGKVLETVGVFEVPKQNGKYETGQLFLHSIFGYRGVVLFPWQARLYDRDVASAAPEKAENPAGHGSKEVKGKTHTYYQVLIDARDCPHISQRSQTEAVTFLANHDDSRALYAIPGLDYVSHEDILPYTSTDQVPIQHELFERFLLYDQTKAPPFVARETLRAWQEKNAPWLELSDVHRETTENIRVTVIPFYMGMREAQNSHVYWWRYCIRLENLDSDVVQLRERHWRIFSLSGTLETVRGRGVVGREPVLSKEQPAFQYSSHVSLQASSGHMWGTFRFERPDGSHFDVRIPPFSLESNKDEKTPPSGLHW |
| binds | POLDIP2 (DNA polymerase delta interacting protein 2), residues 52-368 (natural protein, human, UniProt Q9Y2S7 52-368, looked up) SSRNRPEGKVLETVGVFEVPKQNGKYETGQLFLHSIFGYRGVVLFPWQARLYDRDVASAAPEKAENPAGHGSKEVKGKTHTYYQVLIDARDCPHISQRSQTEAVTFLANHDDSRALYAIPGLDYVSHEDILPYTSTDQVPIQHELFERFLLYDQTKAPPFVARETLRAWQEKNHPWLELSDVHRETTENIRVTVIPFYMGMREAQNSHVYWWRYCIRLENLDSDVVQLRERHWRIFSLSGTLETVRGRGVVGREPVLSKEQPAFQYSSHVSLQASSGHMWGTFRFERPDGSHFDVRIPPFSLESNKDEKTPPSGLHW |
